PMC9638894, “Anti-CRISPR proteins function through thermodynamic tuning and allosteric regulation of CRISPR RNA-guided surveillance complex” (Nucleic Acids Research, 2022)

Biological target: T1, type IF CRISPR RNA guided surveillance complex (Csy) (UniProt Q02MM2 1-187)
T1 construct: Cas8f subunit (tail) of the type IF Csy complex; Csy1); Cas5 subunit (tail) of the type IF Csy complex; Csy2); Cas7 subunit (backbone, six copies Cas7.1f-Cas7.6f) of the type IF Csy complex; Csy3); Cas6f subunit (head) of the type IF Csy complex; Csy4); Ribonucleoprotein: also holds one crRNA (synthetic CRISPR, Addgene 89244); Purified on Ni-NTA, so one subunit carries a His tag; also called Csy …
Test: ITC; AcrIF9 or AcrIF2 binding to the Csy complex; conditions not told in the text shown (Supplemental Figure S8)
Details: both partners purified

B1: AcrIF9 (natural protein)
chain: MKAAYIIKEVQNINSEREGTQIEATSLSQAKRIASKEQCFHGTVMRIETVNGLWLAYKEDGKRWVDCQ
B1 was tested, and the dH was > 0.
